Data on four molecules can be found in patent US20250163121A1 (AKSTON BIOSCIENCES, published 2025).

Usually IC50 stands for the point on the concentration scale where inhibition reaches its midpoint. The low end stands for inhibition by little substance, the high end for a need for much substance.

B1: insulin-Fc fusion protein of SEQ ID NO: 26 (insulin polypeptide SEQ ID NO: 5, linker SEQ ID NO: 9, canine IgGB Fc fragment SEQ ID NO: 12) (Fc fusion)
chain: FVNQHLCGSDLVEALALVCGERGFFYTDPTGGGPRRGIVEQCCHSICSLYQLENYCNGGGGAGGGGDCPKCPAPEMLGGPSVFIFPPKPKDTLLIARTPEVTCVVVDLDPEDPEVQISWFVDGKQMQTAKTQPREEQFNGTYRVVSVLPIGHQDWLKGKQFTCKVNNKALPSPIERTISKARGQAHQPSVYVLPPSREELSKNTVSLTCLIKDFFPPDIDVEWQSNGQQEPESKYRTTPPQLDEDGSYFLYSKLSVDKSRWQRGDTFICAVMHEALHNHYTQESLSHSPG
notes: Disulfide-linked homodimer made in HEK293 cells; 93% homodimer
B2: insulin-Fc fusion protein of SEQ ID NO: 29 (SEQ ID NO: 26 with the mutation cNg-NB139-S; canine IgGB Fc fragment SEQ ID NO: 15) (Fc fusion)
chain: FVNQHLCGSDLVEALALVCGERGFFYTDPTGGGPRRGIVEQCCHSICSLYQLENYCNGGGGAGGGGDCPKCPAPEMLGGPSVFIFPPKPKDTLLIARTPEVTCVVVDLDPEDPEVQISWFVDGKQMQTAKTQPREEQFSGTYRVVSVLPIGHQDWLKGKQFTCKVNNKALPSPIERTISKARGQAHQPSVYVLPPSREELSKNTVSLTCLIKDFFPPDIDVEWQSNGQQEPESKYRTTPPQLDEDGSYFLYSKLSVDKSRWQRGDTFICAVMHEALHNHYTQESLSHSPG
notes: Non-glycosylated homodimer made in HEK293 cells; 98.3% homodimer; also called cNg-S
B3: insulin-Fc fusion protein of SEQ ID NO: 31 (SEQ ID NO: 26 with des hinge D and the mutation cNg-NB138-K; canine IgGB Fc fragment SEQ ID NO: 16) (Fc fusion)
chain: FVNQHLCGSDLVEALALVCGERGFFYTDPTGGGPRRGIVEQCCHSICSLYQLENYCNGGGGAGGGGCPKCPAPEMLGGPSVFIFPPKPKDTLLIARTPEVTCVVVDLDPEDPEVQISWFVDGKQMQTAKTQPREEQFKGTYRVVSVLPIGHQDWLKGKQFTCKVNNKALPSPIERTISKARGQAHQPSVYVLPPSREELSKNTVSLTCLIKDFFPPDIDVEWQSNGQQEPESKYRTTPPQLDEDGSYFLYSKLSVDKSRWQRGDTFICAVMHEALHNHYTQESLSHSPG
notes: Non-glycosylated homodimer made in HEK293 cells; 98.1% homodimer; also called cNg-K with des hinge D
B4: insulin-Fc fusion protein of SEQ ID NO: 22 (insulin polypeptide SEQ ID NO: 5, linker SEQ ID NO: 9, canine IgGA Fc fragment SEQ ID NO: 11) (Fc fusion)
chain: FVNQHLCGSDLVEALALVCGERGFFYTDPTGGGPRRGIVEQCCHSICSLYQLENYCNGGGGAGGGGRCTDTPPCPVPEPLGGPSVLIFPPKPKDILRITRTPEVTCVVLDLGREDPEVQISWFVDGKEVHTAKTQSREQQFNGTYRVVSVLPIEHQDWLTGKEFKCRVNHIDLPSPIERTISKARGRAHKPSVYVLPPSPKELSSSDTVSITCLIKDFYPPDIDVEWQSNGQQEPERKHRMTPPQLDEDGSYFLYSKLSVDKSRWQQGDPFTCAVMHETLQNHYTDLSLSHSPG
notes: Disulfide-linked homodimer made in HEK293 cells

In the assay the target is T1, human insulin receptor (on human IM-9 cells) (human, UniProt P06213 28-1382).
T1 construct: whole, on cells; Endogenous receptor on IM-9 cells; the mature receptor is a processed alpha2-beta2 tetramer from one precursor; also called IR
T1 sequence (P06213 28-1382): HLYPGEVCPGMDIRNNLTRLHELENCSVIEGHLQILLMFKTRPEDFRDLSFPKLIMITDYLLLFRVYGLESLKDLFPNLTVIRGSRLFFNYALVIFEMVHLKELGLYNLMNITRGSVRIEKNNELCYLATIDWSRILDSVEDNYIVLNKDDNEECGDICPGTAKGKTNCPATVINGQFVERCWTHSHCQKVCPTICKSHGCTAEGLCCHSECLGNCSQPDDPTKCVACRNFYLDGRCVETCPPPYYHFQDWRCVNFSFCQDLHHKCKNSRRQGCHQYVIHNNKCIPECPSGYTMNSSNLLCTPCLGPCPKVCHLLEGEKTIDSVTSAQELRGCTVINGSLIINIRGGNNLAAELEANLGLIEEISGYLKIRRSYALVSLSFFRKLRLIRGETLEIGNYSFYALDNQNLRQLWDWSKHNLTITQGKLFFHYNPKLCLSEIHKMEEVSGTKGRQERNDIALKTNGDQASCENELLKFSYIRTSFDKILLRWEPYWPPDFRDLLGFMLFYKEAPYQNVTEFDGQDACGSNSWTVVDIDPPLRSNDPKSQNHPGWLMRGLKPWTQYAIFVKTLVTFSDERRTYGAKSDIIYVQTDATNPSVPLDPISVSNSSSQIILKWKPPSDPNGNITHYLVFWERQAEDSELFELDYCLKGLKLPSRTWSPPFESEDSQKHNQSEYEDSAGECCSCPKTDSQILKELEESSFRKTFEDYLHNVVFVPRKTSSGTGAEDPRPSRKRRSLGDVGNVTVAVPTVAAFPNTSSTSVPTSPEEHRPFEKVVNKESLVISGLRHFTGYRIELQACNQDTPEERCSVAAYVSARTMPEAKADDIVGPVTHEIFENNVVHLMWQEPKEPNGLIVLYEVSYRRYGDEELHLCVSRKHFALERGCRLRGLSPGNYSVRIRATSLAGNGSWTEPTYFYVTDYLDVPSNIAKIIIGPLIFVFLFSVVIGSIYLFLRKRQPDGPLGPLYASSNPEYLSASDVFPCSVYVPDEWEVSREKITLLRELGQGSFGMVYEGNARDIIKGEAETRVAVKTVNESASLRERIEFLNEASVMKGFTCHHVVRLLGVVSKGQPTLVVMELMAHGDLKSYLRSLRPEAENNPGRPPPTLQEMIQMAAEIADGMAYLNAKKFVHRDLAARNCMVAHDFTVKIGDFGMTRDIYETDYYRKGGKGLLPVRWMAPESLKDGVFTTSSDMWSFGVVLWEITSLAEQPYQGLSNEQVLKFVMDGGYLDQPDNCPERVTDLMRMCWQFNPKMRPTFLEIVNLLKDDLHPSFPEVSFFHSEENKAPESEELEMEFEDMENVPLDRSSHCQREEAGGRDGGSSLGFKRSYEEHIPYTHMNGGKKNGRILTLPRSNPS
Kind of assay: competition with biotinylated RHI on human IM-9 cells, flow cytometry, 4 C. As for the experimental part: Biotinylated-RHI was diluted in FACS staining medium to a concentration of 1.25 μg/mL. 40 μL of the serially diluted test compound and 8 μL of 1.25 μg/mL Biotin-RHI were added into each well of a V bottom microtiter plate, mixed by slow vortexing, and placed on ice. 40 μL of an IM-9 cell suspension (8×10^6 cells/mL) was then added to each well by multichannel pipette, mixed again gently and incubated on ice for 30 min to allow competitive binding on the insulin receptor on IM-9 cells. Cells were then washed twice with 275 μL of ice-cold FACS wash buffer (HBSS/2 mM EDTA/0.1% Na-azide+0.5% horse serum) by centrifuging the V-bottom plate at 3000 rpm for 3 min and aspirating the supernatant. Cells were then resuspended in 40 μL of FACS staining medium containing 1:100 diluted Streptavidin-PE (Life Technologies) for 20 min on ice. Cells were then washed once with 275 μL of ice-cold FACS buffer and finally fixed with 3% paraformaldehyde for 10 min at room temp. Cells were then washed once with 275 μL of ice-cold FACS buffer and resuspended in 250 μl of FACS buffer for analysis.
The V-bottom plates containing cells were then analyzed on a Guava 8-HT flow cytometer (Millipore). Biotinylated-RHI binding to insulin receptor was quantitated by the median fluorescence intensity (MFI) of the cells on the FACS FL-2 channel for each concentration of the test compound. Control wells were labeled only with biotinylated-RHI and were used to calculate the percent (%) inhibition resulting from each test compound concentration. The % inhibition by test compounds of biotinylated-RHI binding on IM-9 cells was plotted against log concentrations of the test compound, and the resulting IC50 values were calculated using GraphPad Prism (GraphPad Software, La Jolla, CA) for the test compounds. Lower IC50 values of the test compound therefore indicate greater levels of biotinylated-RHI inhibition at lower concentrations indicating stronger binding of the insulin-Fc fusion protein to the insulin receptor. A control compound, such as unlabeled recombinant human insulin (RHI) was also used as an internal standard to generate an RHI IC50 against which a given compound IC50 could be ratioed (IC50(compound)/IC50(RHI)). Lower IC50 ratios have more similar binding to RHI (stronger binding to insulin receptor), while higher IC50 ratios have weaker binding to the insulin receptor relative to RHI.
Regarding B1, the IC50 came out at 28 nM.

Molecule B2 displayed an IC50 of 145 nM.

Consider B3, for which the IC50 stood at 147 nM.

In turn, B4 registered an IC50 of 2730 nM.
